From paper PMC8635308, “Neuropilin 1 regulates bone marrow vascular regeneration and hematopoietic reconstitution” (Nature Communications, 2021) come the findings set out here.

In experiment [1] the target is Mouse NRP1 (Recombinant Mouse Neuropilin-1 Protein, CF) (mouse) (UniProt P97333). Description: SPR; Pioneer SensiQ; mouse NRP1 immobilised on a Polycarboxylate High Capacity (PCH) chip in 10 mM sodium acetate pH 5.0 (2307 RU for mouse SEMA3A Fc, 1565 RU for human SEMA3A Fc); SEMA3A-Fc flowed over; running buffer 20 mM HEPES pH 7.5, 150 mM NaCl, 0.005% Tween-20; OneStep kinetics, single concentration (100 nM mouse or 50 nM human SEMA3A Fc), 75 ul/min. On the technique in general: SPR reads the build-up and loss of mass on a sensor chip optically.

In experiment [2] the target is T1, Mouse NRP1 (Recombinant Mouse Neuropilin-1 Protein, CF) (mouse, UniProt P97333 22-856).
T1 construct: Neuropilin-1, mouse, recombinant soluble protein; also called murine NRP1; mouse NRP1 receptor; source: bought: R&D Systems
T1 sequence (looked up): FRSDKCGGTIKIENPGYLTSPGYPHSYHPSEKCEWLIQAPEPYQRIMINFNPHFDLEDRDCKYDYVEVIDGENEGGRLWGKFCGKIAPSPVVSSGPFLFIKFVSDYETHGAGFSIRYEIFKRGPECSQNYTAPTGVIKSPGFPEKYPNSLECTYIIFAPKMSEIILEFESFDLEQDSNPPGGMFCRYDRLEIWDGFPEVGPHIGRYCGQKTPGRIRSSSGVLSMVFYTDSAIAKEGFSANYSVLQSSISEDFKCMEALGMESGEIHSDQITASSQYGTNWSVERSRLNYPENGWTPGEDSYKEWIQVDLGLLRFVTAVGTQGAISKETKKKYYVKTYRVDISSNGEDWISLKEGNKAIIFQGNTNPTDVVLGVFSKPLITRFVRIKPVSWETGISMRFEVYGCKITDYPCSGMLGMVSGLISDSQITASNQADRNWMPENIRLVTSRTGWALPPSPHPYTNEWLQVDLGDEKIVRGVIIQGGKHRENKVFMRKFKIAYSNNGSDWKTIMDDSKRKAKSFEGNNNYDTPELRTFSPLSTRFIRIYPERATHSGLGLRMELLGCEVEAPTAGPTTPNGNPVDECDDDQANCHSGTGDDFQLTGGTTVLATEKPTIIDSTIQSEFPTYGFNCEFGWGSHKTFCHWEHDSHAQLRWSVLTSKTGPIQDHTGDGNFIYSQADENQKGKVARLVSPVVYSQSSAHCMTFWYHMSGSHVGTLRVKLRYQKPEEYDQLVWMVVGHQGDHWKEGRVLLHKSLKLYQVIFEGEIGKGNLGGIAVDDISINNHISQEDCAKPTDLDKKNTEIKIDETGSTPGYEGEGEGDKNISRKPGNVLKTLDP
The description is as above. Conditions: both partners purified.

A word on the Kd: it is the concentration at which binding is half-saturated. Consider “recombinant human full length SEMA3A Fc (huSEMA3A, Lys26-Val771) (from UniProt Q14563 26-771) (Fc fusion)”, for which the Kd in experiment [1] worked out at 1.8 nM.

B1: recombinant mouse SEMA3A Fc (muSEMA3A, Asn21-Lys747) (Fc fusion, UniProt O08665 21-747, looked up)
chain: NYANGKNNVPRLKLSYKEMLESNNVITFNGLANSSSYHTFLLDEERSRLYVGAKDHIFSFNLVNIKDFQKIVWPVSYTRRDECKWAGKDILKECANFIKVLEAYNQTHLYACGTGAFHPICTYIEVGHHPEDNIFKLQDSHFENGRGKSPYDPKLLTASLLIDGELYSGTAADFMGRDFAIFRTLGHHHPIRTEQHDSRWLNDPRFISAHLIPESDNPEDDKVYFFFRENAIDGEHSGKATHARIGQICKNDFGGHRSLVNKWTTFLKARLICSVPGPNGIDTHFDELQDVFLMNSKDPKNPIVYGVFTTSSNIFKGSAVCMYSMSDVRRVFLGPYAHRDGPNYQWVPYQGRVPYPRPGTCPSKTFGGFDSTKDLPDDVITFARSHPAMYNPVFPINNRPIMIKTDVNYQFTQIVVDRVDAEDGQYDVMFIGTDVGTVLKVVSVPKETWHDLEEILLEEMTVFREPTTISAMELSTKQQQLYIGSTAGVAQLPLHRCDIYGKACAECCLARDPYCAWDGSSCSRYFPTAKRRTRRQDIRNGDPLTHCSDLQHHDNHHGPSLEERIIYGVENSSTFLECSPKSQRALVYWQFQRRNEDRKEEIRMGDHIIRTEQGLLLRSLQKKDSGNYLCHAVEHGFMQTLLKVTLEVIDTEHLEELLHKDDDGDGSKIKEMSSSMTPSQKVWYRDFMQLINHPNLNTMDEFCEQVWKRDRKQRRQRPGHSQGSSNK
notes: Semaphorin 3A, mouse, Asn21-Lys747, truncated at the C-terminus (lacks the RNRR and RAPR stretches); also called Murine SEMA3A Fc; truncated murine SEMA3A; source: bought: R&D Systems
Turning to B1, in experiment [2], the Kd is ~4.4 nM.
